Measurements as given in US20090068207A1, “Compositions Containing Beta 2-Glycoprotein I-Derived Peptides for the Prevention and/or Treatment of Vascular Disease” (Vascular Biogenics Ltd., priority 2005, published 2009).

What was measured:
[1] = tested on: LDL receptor deficient mice; conditions: oral administration, U.S. Ser. No. 09/806,400; cited from earlier work
[2] = tested on: lymph node cells; experiment: Cytokine secretion by lymph node cells of tolerized mice (ELISA of conditioned medium); format: in vivo
Procedure: IFN-γ, IL-4, IL-10 and TGF-β secretion in tolerized lymph nodes: Conditioned medium was obtained from the lymph node proliferation experiments following 48 h of culture in the presence of β2GPI.

[3] = tested on: atherosclerotic lesions; experiment: Immunohistochemistry of atherosclerotic lesions (β2GPI, CD3, Mac-1); format: in vivo, mice
Text: Immunohistochemistry of atherosclerotic lesions: Immunohistochemical staining for CD3, macrophages and β2GPI content were done on aortic sinus 5-μm-thick frozen sections. Primary antibodies used for probing were rat anti-mouse CD3, rat anti-mouse Mac-1 and a polyclonal rat anti-mouse β2GPI antibodies (George et al Circulation 2000; 102:1822-7). Slides were developed with the three amino-9-ethylcarbonasole (AEC) substrate. Sections were counterstained with hematoxylin. Spleen sections were used as a positive control. Staining in the absence of 1st or 2nd antibody was used as a negative control. β2GPI presence were evaluated by its occupancy of plaque area by computerized morphometry as described previously for VCAM-1 (George et al, Circ Res. 2000; 86:1203-10).
No effect of oral β2GPI on the number of CD3 positive cells (0-5 cells/plaque in all groups; data not shown) or macrophage (Mac-1 positive) content of the fatty streaks was observed.

[4] = tested on: inguinal lymph node cells; experiment: Lymph node cell proliferation (stimulation index) to sensitizing antigen β2GPI after mucosal administration; format: in vivo, mice
Procedure: Immunization: Subcutaneous immunization with human β2GPI: Human β2GPI was prepared from human plasma pool as described above. For immunization, human β2GPI was dissolved in PBS and mixed with equal volumes of Freund's incomplete adjuvant. Immunizations were performed by single subcutaneous injection of 10 μg antigen/mouse in 0.1 ml volume. Three days following the last mucosal administration of plaque associated molecules the mice received one immunization, and were sacrificed 10 days post immunization.
Proliferation assays: Mice were exposed to the tested antigen as described for assessment of atherosclerosis, and then immunized (one to three days following the last exposure) subcutaneously with 10 μg β2GPI in 0.1 ml PBS, prepared from purified human β2GPI as described above.
Proliferation was assayed ten days after immunization with the β2GPI as follows: Draining inguinal lymph nodes were prepared by mashing the tissues on 100 mesh screens. Red blood cells were lysed with cold sterile double distilled water (6 ml) for 30 seconds and 2 ml of NaCl 3.5% was added. Incomplete medium was added (10 ml), cells were centrifuged for 7 min at 1,700 rpm, resuspended in RPMI medium and counted in a haemocytometer at 1:20 dilution (10 μl cells+190 μl Trypan Blue). Proliferation was measured by the incorporation of [^3H] Thymidine into DNA in triplicate samples of 100 μl of the packed cells (1×10^6 cells/ml) in a 96 well microtiter plate. […] Thymidine (0.5 μCi/well) was added. After an additional 12-24 hours of incubation the cells were harvested and transferred to glass fiber filters using a cell harvester (Brandel) and counted using β-counter (Lumitron). Proliferation was measured by the incorporation of [^3H] thymidine into DNA during the final 12 h of incubation. The results are expressed as the stimulation index (S.I.): the ratio of the mean radioactivity (cpm) of the antigen to the mean background (cpm) obtained in the absence of the antigen. Standard deviation was always <10% of the mean cpm.
Tolerance induced by mucosal exposure to plaque-associated molecules may be mediated by suppression of specific immune responses to antigenic portions (epitopes) of these plaque associated molecules. Lymphocyte proliferation in response to mucosal (nasal and oral) exposure to human β2GPI was measured in […]. 9 male, 5 week old LDL-RD mice were divided into 3 groups. In group A (n=3) oral tolerance was induced with 100 μg/mouse β2GPI suspended in 0.1 ml PBS, administered by gavage, as described above, every other day for 5 days. In group B (n=3) nasal tolerance was induced with 10 μg/mouse β2GPI suspended in 10 μl PBS, administered intranasally as described above, every other day for 5 days. The mice in group C (n=3) received oral administration of 200 μl PBS every other day for 5 days. Immune reactivity was stimulated in all mice by immunization with human β2GPI as described above in the Materials and Methods section, one day after the last feeding. Ten days after the immunization lymph nodes were collected for assay of proliferation (as expressed in the Stimulation Index SI). All mice were fed normal chow-diet containing 4.5% fat by weight (0.02% cholesterol) and water ad libitum.

[5] = tested on: lymph node cells; experiment: Lymph node cell proliferation (stimulation index) to oxLDL after oral administration; format: in vivo, mice
Procedure: Proliferation was measured by the incorporation of [^3H] thymidine into DNA during the final 12 h of incubation. The results were computed as stimulation index: the ratio of the mean cpm of the antigen to the mean background cpm obtained in the absence of the antigen.
[…] Three days after the final administration of peptides, the mice were immunized with OxLDL in incomplete Freund's adjuvant, as described in the Examples above, and lymph node cells assessed for antigen (OxLDL) stimulation of proliferation 10 days later. Proliferation was assessed by incorporation of thymidine, expressed as the Stimulation Index, as described.

[6] = tested on: anti-β2GPI antibodies and antibody isotypes; experiment: Serum antibody levels and isotypes (ELISA); format: in vivo, mice; conditions: oral administration, subsequently immunized with β2GPI; data not shown
Procedure: Detection of anti-b2GPI antibodies and antibody isotypes: β2GPI (10 μg/ml) was coated onto flat bottom 96-well ELISA plates (Nalge-Nunc, Int. Rochester, N.Y.) by overnight incubation and the assay was performed as previously described (George et al, Circulation, 1998; 15:1108-15) IgG, IgA and IgM isotypes in the sera of β2GPI tolerant and non-tolerant mice were determined by an ELISA kit (Southern Biotechnology Associates, Birmingham, Ala., USA) according to the manufacture's instructions.
None of the orally-administered antigens induced production of antiβ2GPI antibodies (data not shown).

B1: β2GPI: beta2-glycoprotein I, species not stated at the place (human or bovine; FIG. 7 legend says bovine) (protein, UniProt P17690 20-345, looked up)
Beta-2-glycoprotein 1: GRTCPKPDELPFSTVVPLKRTYEPGEQIVFSCQPGYVSRGGIRRFTCPLTGLWPINTLKCMPRVCPFAGILENGTVRYTTFEYPNTISFSCHTGFYLKGASSAKCTEEGKWSPDLPVCAPITCPPPPIPKFASLSVYKPLAGNNSFYGSKAVFKCLPHHAMFGNDTVTCTEHGNWTQLPECREVRCPFPSRPDNGFVNHPANPVLYYKDTATFGCHETYSLDGPEEVECSKFGNWSAQPSCKASCKLSIKRATVIYEGERVAIQNKFKNGMLHGQKVSFFCKHKEKKCSYTEDAQCIDGTIEIPKCFKEHSSLAFWKTDASDVKPC
reduction in atherogenesis by oral tolerance [1]: approximately 30%
TGF-β levels in the conditioned medium of lymph node cells ([2]; cells from β2GPI-tolerized mice): below the detection threshold
levels of IFN-γ secreted by lymph node cells ([2]; cells from β2GPI-tolerized mice, stimulation with β2GPI, mean value): 1802 ± 588 pg/mL
Levels of IL-4 in medium relative to control animals ([2]; oral administration, immunized with β2GPI, cells incubated 48 h with β2GPI, p<0.01): three times higher
IL-10 secretion relative to BSA-treated controls ([2]; oral administration, immunized with β2GPI, in-vitro priming with β2GPI, p<0.05): 2.6 times
content of plaque-expressed β2GPI, mean percent occupancy ([3]; oral 500 μg/dose, LDL-RD mice, data not shown): 15±5%
effect on number of CD3 positive cells or macrophage (Mac-1 positive) content of the fatty streaks ([3]; oral administration, LDL-RD mice): No effect
number of CD3 positive cells ([3]; oral administration, all groups, data not shown): 0-5 cells/plaque
reduction of the stimulation index of lymph node cells ([4]; mucosal administration to LDL-RD mice, Examples 3 and 6): up to 70%
suppression of primary cellular response (lymph node cell proliferation) to β2GPI ([4]; oral 5 doses of 500 μg per mouse, stimulation with 2.0 μg/ml β2GPI, LDL-RD mice): > 60%
influence on primary cellular response to BSA ([4]; oral administration, mice immunized with BSA, results not shown): did not influence
suppression of primary cellular response (lymph node cell proliferation) to oxLDL ([5]; oral 5 doses of 500 μg per mouse, stimulation with 20 μg/ml oxLDL, LDL-RD mice): 74%
reduction in Stimulation Index of OxLDL-sensitized lymph node cells ([5]; oral, 3 doses of 100 μg, LDL-RD mice immunized with OxLDL): 87%
IgM, IgA, or IgG total antibody levels and isotype distribution [6]: did not alter
